Laboratory results published in patent publication US20210230248A1, “Multivalent pharmacophores for high avidity and overexpressed-target specific binding and uses thereof” (priority 2020, published 2021).
Changes are numbered by the printed parent chain. Numbers in names are those of the source. Where no end group is shown, it is not given here.

Columns and labels:
[1] = tested on: H1299 and HT-1080 cells; test: Chemotaxis assay (fibronectin coated transwell); assay type: cell-based, human; conditions: 10% FBS chemoattractant, 16 h
Method: Chemotaxis assay was performed using BD BioCoat 24-well transwell with 8 μm pore size filter which is coated with fibronectin (Corning). For the study, H1299 and HT-1080 cells were detached from culture flasks with trypsin/EDTA, and then the trypsin was deactivated by adding the complete medium. The cells were washed with serum-free medium twice and resuspended at the final density of 50,000 cells in 500 μL DMEM medium supplemented with 0.5% BSA. The cells were treated with multivalent pharmacophores and uPAR blocking antibody for 1 h at 37° C. in 5% CO2 incubator. 650 μL of DMEM with 10% FBS was used as chemoattractant and added into the lower chamber. Serum-free DMEM medium was used as a negative control, and no drug treatment well was considered as 100% migration. After placing the upper chamber into the lower chamber, 500 μL cell suspensions were added to the upper chamber. 4-arm PEG-GFD, 6-arm PEG-GFD and uPAR blocking antibody, VIM5, with various concentrations were added in both upper and lower chambers. The transwell was incubated at 37° C. in 5% CO2 incubator for 16 h. […] The number of cells migrated past the filter was quantify by reading the solution in plate reader after transferring into a white 96-well plates.

[2] = target: T1, uPAR overexpressing Hela cells (Homo sapiens, UniProt Q03405); test: Competitive binding assay on uPAR overexpressing Hela cells; conditions: ratio of IC50 values
T1 construct: endogenous in cells; host or cells: Hela cells
T1 sequence (Q03405 23-335): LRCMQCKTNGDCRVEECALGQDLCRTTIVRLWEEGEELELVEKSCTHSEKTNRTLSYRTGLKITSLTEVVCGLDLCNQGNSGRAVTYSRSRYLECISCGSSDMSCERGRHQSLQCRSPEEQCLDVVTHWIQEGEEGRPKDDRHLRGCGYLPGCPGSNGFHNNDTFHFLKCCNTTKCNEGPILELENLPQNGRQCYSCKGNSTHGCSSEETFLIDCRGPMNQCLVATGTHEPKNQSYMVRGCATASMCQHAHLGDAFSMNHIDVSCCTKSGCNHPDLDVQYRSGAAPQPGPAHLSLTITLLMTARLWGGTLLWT
Description: This assay is to measure the binding avidity of multivalent PEG-GFD pharmacophores to uPAR overexpressing Hela cells in comparison to uPA. Hela cells express uPAR but not uPA (Rabbani et al., Neoplasia, 2010, 12(10); 778-88), and therefore competition from endogenous uPA can be excluded.
Mouse anti-uPAR (Clone VIM5) is an uPAR blocking antibody (Sillaber et al., J Biol Chem, 1997, 272(12):7824-32). The potency of multivalent PEG-GFD pharmacophores and native uPA to compete against the antibody in binding to the overexpressed uPAR on the surface of Hela cells is measured and compared in this assay.
Hela cells were detached from culture flasks by trypsin/EDTA, resuspended in complete culture medium in a 50 mL conical tube, and incubated for 1 h at 37° C. in 5% CO2 incubator to allow receptor recovery. PE-conjugated anti-uPAR antibody (Clone VIM5; Invitrogen) at the final concentration of 0.5 μg/100 μL (33.33 nM) was mixed with titrated concentrations of 4-arm PEG-GFD and 6-arm PEG-GFD, and recombinant human uPA (Biolegend) in Stain Buffer. The mixture was added into Hela cells (500,000 cells in 100 μL; final density). […] The fluorescent intensity of PE on Hela cells was quantified by flow cytometry and plotted against the titration of 4-arm PEG-GFD, 6-arm PEG-GFD and uPA. The binding avidity of multivalent PEG-GFD pharmacophores relative to native uPA can be calculated.

[3] = tested on: H1299, SW480, HT-1080 and PC3 cells; test: Cell adhesion assay on vitronectin coated plate; assay type: cell-based, human; conditions: four uPAR overexpressing cell lines; 3 h; various concentrations
Method: For adhesion of cancer cells to vitronectin, 96-well plate was coated overnight with vitronectin (Thermo Fisher Scientific) at 5 μg/mL in PBS at 4° C., 50 μL/well. The wells without coating were used as negative controls. The plate was then blocked with 3% MSD Blocking Buffer for 2 h at room temperature. Four uPAR overexpressing human cancer lines were used for the assay: non-small cell lung cancer line H1299, colorectal cancer line SW480, fibrosarcoma line HT-1080 and prostate cancer line PC3. The cells were detached from culture flasks by trypsin/EDTA, resuspended in complete culture medium in a 50 mL conical tube, and incubated for 1 h at 37° C. in 5% CO2 incubator to allow receptor recovery. Cells were then washed with serum-free medium and resuspended in DMEM medium with 0.5% BSA. 50,000 cells in 100 μL were plated into each well with various concentrations of 4-arm and 6-arm PEG-GFD pharmacophores, and uPAR blocking antibody, VIM5. The plates were incubated at 37° C. in 5% CO2 incubator for 3 h, and washed 4 times with PBS with 0.5% BSA. The number of adherent cells in each well was quantified by CellTiter-Glo (Promega).

[4] = tested on: H1299 and HT-1080 cells; test: Matrigel invasion assay; assay type: cell-based, human; conditions: 10 nM, 24 h
Method: The migration of cells through Matrigel indicates the ability of the cells to digest the extracellular matrix during the process of migration. The Matrigel invasion assay is similar to the chemotaxis assay above except that the 8 μm pore size filter is coated with Matrigel. BD BioCoat Matrigel Invasion Chamber (Corning) was used for the assay with H1299 and HT-1080 cells. 4-arm PEG-GFD, 6-arm PEG-GFD and the blocking antibody VIM5 were used at the concentration of 10 nM. After 24 h treatment, the Matrigel along with the cells remaining on the upper surface of filter in the upper chamber was scraped off with a cotton swab. The migrated cells were measured with CellTiter-Glo as described above.

[5] = target: T2, CD47 overexpressing Jurkat cells (Homo sapiens, UniProt Q08722); test: Competitive binding assay on CD47 overexpressing Jurkat cells; conditions: for IC50: against FITC-conjugated anti-CD47 B6H12.2 at ~33.3 nM, 3 h on ice; for increase of avidity compared to SIRPα monomer: ratio of IC50 values
T2 construct: endogenous in cells; host or cells: Jurkat cells
T2 sequence (Q08722 19-323): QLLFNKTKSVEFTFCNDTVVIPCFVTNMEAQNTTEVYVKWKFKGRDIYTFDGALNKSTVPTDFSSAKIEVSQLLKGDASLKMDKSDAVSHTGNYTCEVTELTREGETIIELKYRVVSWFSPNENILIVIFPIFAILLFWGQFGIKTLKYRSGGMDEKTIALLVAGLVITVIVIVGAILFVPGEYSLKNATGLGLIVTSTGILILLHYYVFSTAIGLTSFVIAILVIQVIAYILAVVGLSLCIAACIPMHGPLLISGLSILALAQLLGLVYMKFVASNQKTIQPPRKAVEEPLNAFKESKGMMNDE
Method: This assay is to measure the binding avidity of multivalent PEG-SIRPα IgV pharmacophores to CD47 overexpressing Jurkat cells by competing against FITC-conjugated CD47 blocking antibody, and to compare the avidity to the affinity of wide-type SIRPα ectodomain.
FITC-conjugated mouse anti-human CD47 monoclonal antibody (Clone B6H12.2, Invitrogen) at the final concentration of 0.5 μg/100 μL (˜33.3 nM) was mixed with titrated concentration (from 0.04 nM to 10.5 μM in Stain Buffer) of SIRPα monomer (Acro Biosystems), 4-arm PEG-2K SIRPα IgV and 6-arm PEG-3.4K SIRPα IgV, both wide-type and Q67R mutant forms. The mixture was added into Jurkat cells (500,000 cells in 100 μL, final density). After incubation on ice for 3 h with occasional mixing, the cells were washed to remove the unbound reagents. The fluorescence intensity of FITC was quantified by flow cytometry. The increase of the binding activity for multivalent PEG-SIRPα IgV pharmacophores compared to SIRPα monomer can be calculated.

[6] = target: T3, human red blood cells (RBCs) (Homo sapiens, UniProt Q08722); test: Competitive binding assay on human red blood cells; conditions: either wide-type or mutant SIRPα IgV; antibody at ~33.3 nM; titration up to 200 nM
T3 construct: from tissue; host or cells: red blood cells from human whole blood of healthy donors
T3 sequence (Q08722 19-323): as above
Method: To assess the risks from binding of multivalent PEG-SIRPα IgV pharmacophores to normal RBCs and subsequent anemia as has been reported for many CD47 targeting agents, a similar competitive binding assay as (4) above is conducted using RBCs as the binding targets.
Human whole blood from healthy donors was drawn into sodium heparin tube. The blood was washed 3 times with PBS and diluted in Stain Buffer (0.5×10^6 RBCs in 100 μL, final density). The competitive binding was performed by incubating RBCs with FITC-conjugated CD47 blocking antibody (Clone B6H12.2, Invitrogen) at the final concentration of 0.5 μg/100 μL (˜33.3 nM) and titrated concentration of 4-arm, or 6-arm PEG-SIRPα IgV as described above, or an unconjugated CD47 blocking antibody (B6H12.2, Invitrogen). A mouse isotype IgG1 was used as a negative control. RBCs were incubated with the reagents on ice for 3 h, mixing occasionally. After washing, the fluorescence intensity of FITC on RBCs was quantified by flow cytometry.

[7] = target: T4, uPAR on cells (uPAR overexpressing Hela, HT-1080, H1299, SW480 and PC3 cells) (human, UniProt Q03405 23-305); test: competitive flow cytometry on uPAR overexpressing Hela cells against PE-VIM5 at ~33.33 nM
T4 construct: whole, on cells; also called CD87; overexpressed uPAR
T4 sequence (Q03405 23-305): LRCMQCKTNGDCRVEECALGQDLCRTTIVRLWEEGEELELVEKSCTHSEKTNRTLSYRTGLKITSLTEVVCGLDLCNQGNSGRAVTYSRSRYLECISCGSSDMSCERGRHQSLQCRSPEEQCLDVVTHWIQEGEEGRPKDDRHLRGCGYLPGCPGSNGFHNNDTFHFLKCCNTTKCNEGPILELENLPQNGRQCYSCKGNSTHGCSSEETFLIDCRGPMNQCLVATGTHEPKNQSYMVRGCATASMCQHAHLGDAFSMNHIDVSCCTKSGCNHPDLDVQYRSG
Method: Hela cells were detached from culture flasks by trypsin/EDTA, resuspended in complete culture medium in a 50 mL conical tube, and incubated for 1 h at 37° C. in 5% CO₂ incubator to allow receptor recovery. […] The mixture was added into Hela cells (500,000 cells in 100 μL; final density). After incubation on ice for 3 h with occasional mixing, the cells were washed to remove the unbound test reagents.

**Q.** With “4-arm PEG-GFD: growth factor-like domain of uPA (first 43 amino acids) conjugated to 4-arm PEG-2K (VPSNCDCLNGGTCVSNKYFSNIHWCNCPKKFGGQHCEIDKSKT; not fully specified (C-terminus); ends and bridges not checked; also: conjugated to 4-arm PEG-2K (site not given here))” as the molecule, how does the “migration of cells to the lower chamber (chemotaxis)” value [1] read?
**A.** significantly reduced migration

**Q.** And the “fold increase in binding activity relative to native uPA” value [2]?
**A.** ~31 fold

**Q.** And the “inhibition of adhesion to vitronectin” value [3]?
**A.** inhibited the adhesion of all four cell lines to vitronectin dose-dependently

**Q.** What about the Matrigel invasion [4] of the same molecule?
**A.** significantly inhibited

B1: wide-type 4-arm PEG-SIRPα IgV: 4-arm PEG-2K conjugated with wide-type SIRPα IgV-like domain (conjugate)
chain: EEELQVIQPDKSVLVAAGETATLRCTATSLIPVGPIQWFRGAGPGRELIYNQKEGHFPRVTTVSDLTKRNNMDFSIRIGNITPADAGTYYCVKFRKGSPDDVEFKSGAGTELSVRA
**Q.** Which IC50 [5] does the source give for B1 here?
**A.** 8.12 nM

**Q.** What about the “increase of avidity compared to SIRPα monomer” value [5] of the same molecule?
**A.** about 995 folds

B2: mutant 4-arm PEG-SIRPα IgV: 4-arm PEG-2K conjugated with Q67R mutant SIRPα IgV-like domain (conjugate)
chain: B1 chain with Q37R
**Q.** How did the IC50 [5] turn out when B2 was run?
**A.** 10.9 nM

B3: mutant 6-arm PEG-SIRPα IgV: 6-arm PEG-3.4K conjugated with Q67R mutant SIRPα IgV-like domain (conjugate)
chain: B1 chain with Q37R
**Q.** How did the IC50 [5] turn out when B3 was run?
**A.** 1.06 nM

B4: 4-arm PEG-SIRPα IgV: 4 units of SIRPα IgV-like domain conjugated to 4-arm PEG-2K; wide-type or Q67R mutant not specified (conjugate)
chain: B1 chain
**Q.** With B4 as the molecule, how does the “competitive binding to RBCs against FITC-conjugated CD47 blocking antibody” value [6] read?
**A.** did not compete

B5: 6-arm PEG-SIRPα IgV: 6 units of SIRPα IgV-like domain conjugated to 6-arm PEG-3.4K; wide-type or Q67R mutant not specified (conjugate)
chain: B1 chain
**Q.** Which “competitive binding to RBCs against FITC-conjugated CD47 blocking antibody” value [6] does the source give for B5 here?
**A.** did not compete

B6: wide-type 6-arm PEG-SIRPα IgV: 6-arm PEG-3.4K conjugated with wide-type SIRPα IgV-like domain (conjugate)
chain: B1 chain
**Q.** With B6 as the molecule, how does the IC50 [5] read?
**A.** 0.723 nM

**Q.** What about the “increase of avidity compared to SIRPα monomer” value [5] of the same molecule?
**A.** ~11,174 folds

B7: 4-arm PEG-GFD (designed binder)
chain: VPSNCDCLNGGTCVSNKYFSNIHWCNCPKKFGGQHCEIDKSKT
modifications: not fully specified (C-terminus); ends and bridges not checked; also: four GFD units on 4-arm PEG-2K
notes: Four GFD units on 4-arm PEG-2K; Expressed in E. coli; also called tetravalent PEG-GFD pharmacophore; 4-arm PEG growth factor-like domain of uPA
**Q.** How did the IC50 [7] turn out when B7 was run?
**A.** 1.14 nM

B8: 6-arm PEG-GFD (designed binder)
chain: B7 chain
modifications: not fully specified (C-terminus); ends and bridges not checked; also: six GFD units on 6-arm PEG-3.4K
notes: Six GFD units on 6-arm PEG-3.4K; also called hexavalent PEG-GFD pharmacophore; 6-arm PEG growth factor-like domain of uPA
**Q.** With B8 as the molecule, how does the IC50 [7] read?
**A.** 0.412 nM
